Residue numbers refer to the chain shown, from its start.

The target in experiment [1] is T1, AnkB 28–873 (MBD + full AI-c) (human, UniProt Q01484-2 28-873).
T1 chain: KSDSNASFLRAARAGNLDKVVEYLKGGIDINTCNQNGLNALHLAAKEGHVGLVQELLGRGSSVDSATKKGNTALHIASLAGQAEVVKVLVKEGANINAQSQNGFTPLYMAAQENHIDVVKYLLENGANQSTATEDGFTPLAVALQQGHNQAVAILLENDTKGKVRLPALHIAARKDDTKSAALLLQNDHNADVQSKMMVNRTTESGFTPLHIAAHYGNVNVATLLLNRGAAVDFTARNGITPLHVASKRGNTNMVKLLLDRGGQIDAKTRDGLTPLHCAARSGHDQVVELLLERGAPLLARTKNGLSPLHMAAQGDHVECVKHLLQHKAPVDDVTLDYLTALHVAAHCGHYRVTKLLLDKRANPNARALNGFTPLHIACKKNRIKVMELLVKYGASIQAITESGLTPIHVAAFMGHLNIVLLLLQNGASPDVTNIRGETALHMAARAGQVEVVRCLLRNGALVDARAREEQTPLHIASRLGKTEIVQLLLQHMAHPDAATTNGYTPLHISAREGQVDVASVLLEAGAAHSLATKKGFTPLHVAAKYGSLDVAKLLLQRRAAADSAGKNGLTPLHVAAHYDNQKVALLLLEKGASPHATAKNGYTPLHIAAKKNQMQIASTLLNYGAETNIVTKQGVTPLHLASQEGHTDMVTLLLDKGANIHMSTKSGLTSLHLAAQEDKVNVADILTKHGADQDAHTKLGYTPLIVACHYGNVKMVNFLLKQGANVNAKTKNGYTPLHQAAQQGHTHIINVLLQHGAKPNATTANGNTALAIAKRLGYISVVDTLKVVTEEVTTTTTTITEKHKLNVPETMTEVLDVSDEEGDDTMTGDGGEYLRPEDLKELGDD
The experiment can be described thus: ITC.

In experiment [2] the target is T2, AnkB R1-14 (Homo sapiens).
T2 chain: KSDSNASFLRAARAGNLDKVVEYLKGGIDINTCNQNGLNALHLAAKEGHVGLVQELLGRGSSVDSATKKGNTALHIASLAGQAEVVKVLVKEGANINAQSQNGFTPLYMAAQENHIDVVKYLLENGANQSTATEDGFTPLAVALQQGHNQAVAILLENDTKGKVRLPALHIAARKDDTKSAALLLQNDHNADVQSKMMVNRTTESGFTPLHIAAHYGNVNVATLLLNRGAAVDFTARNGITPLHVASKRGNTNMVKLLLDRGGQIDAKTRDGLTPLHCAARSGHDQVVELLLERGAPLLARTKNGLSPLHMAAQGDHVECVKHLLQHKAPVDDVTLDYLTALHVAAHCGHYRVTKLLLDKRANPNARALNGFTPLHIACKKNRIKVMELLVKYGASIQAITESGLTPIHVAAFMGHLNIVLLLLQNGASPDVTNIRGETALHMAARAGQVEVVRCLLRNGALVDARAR
Description: ITC.

Experiment [3] addresses T3, AnkB R6-24 (Homo sapiens).
T3 chain: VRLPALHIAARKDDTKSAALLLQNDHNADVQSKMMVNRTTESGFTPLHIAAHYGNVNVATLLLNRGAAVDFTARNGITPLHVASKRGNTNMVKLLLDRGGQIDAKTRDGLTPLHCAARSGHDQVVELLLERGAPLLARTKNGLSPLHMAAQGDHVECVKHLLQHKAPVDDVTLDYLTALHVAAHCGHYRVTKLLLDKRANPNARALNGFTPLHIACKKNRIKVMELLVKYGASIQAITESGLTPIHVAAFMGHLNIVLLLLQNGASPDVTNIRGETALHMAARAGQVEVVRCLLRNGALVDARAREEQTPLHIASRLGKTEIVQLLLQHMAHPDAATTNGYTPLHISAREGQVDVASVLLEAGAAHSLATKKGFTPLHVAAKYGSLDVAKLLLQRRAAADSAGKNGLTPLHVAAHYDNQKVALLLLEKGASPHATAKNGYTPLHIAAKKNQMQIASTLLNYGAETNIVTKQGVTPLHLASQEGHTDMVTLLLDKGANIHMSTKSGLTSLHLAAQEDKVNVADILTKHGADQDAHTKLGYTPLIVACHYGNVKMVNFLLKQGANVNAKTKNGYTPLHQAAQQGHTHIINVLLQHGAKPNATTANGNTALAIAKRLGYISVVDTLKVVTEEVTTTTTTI
The experiment can be described thus: ITC.

The target of experiment [4] is T4, AnkG 38–855 (AnkG MBD-AI-c protein; MBD + partial AI-c) (rat, UniProt O70511-1 38-855).
T4 chain: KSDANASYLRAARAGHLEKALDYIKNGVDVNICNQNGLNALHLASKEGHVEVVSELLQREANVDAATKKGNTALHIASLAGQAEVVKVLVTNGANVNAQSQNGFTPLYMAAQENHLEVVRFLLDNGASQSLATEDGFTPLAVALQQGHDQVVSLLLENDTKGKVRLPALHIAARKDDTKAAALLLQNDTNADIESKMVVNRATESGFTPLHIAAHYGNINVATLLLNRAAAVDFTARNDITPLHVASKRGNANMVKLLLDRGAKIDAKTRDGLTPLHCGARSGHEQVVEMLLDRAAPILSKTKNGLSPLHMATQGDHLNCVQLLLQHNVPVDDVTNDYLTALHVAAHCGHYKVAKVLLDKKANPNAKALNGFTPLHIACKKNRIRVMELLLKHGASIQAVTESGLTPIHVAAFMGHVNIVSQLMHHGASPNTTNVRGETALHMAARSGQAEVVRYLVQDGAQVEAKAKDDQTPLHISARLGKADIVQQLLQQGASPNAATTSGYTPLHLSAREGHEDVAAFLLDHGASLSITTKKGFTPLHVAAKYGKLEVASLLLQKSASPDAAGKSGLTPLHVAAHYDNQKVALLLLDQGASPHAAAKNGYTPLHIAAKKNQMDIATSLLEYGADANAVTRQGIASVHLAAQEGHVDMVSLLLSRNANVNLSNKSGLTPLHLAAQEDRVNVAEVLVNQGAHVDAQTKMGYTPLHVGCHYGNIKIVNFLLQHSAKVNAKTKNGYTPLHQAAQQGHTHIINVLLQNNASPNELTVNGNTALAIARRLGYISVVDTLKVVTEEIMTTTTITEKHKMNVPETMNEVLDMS
The experiment can be described thus: ITC.

The target of experiment [5] is T5, AnkG_MBD 'site-1' mutant (Phe141Gln, Phe164Gln) (rat).
T5 chain: T4 chain with F104Q, F137Q
Description: ITC.

Experiment [6] addresses T6, AnkG_MBD 'site-2' mutant (Ile277Gln, Leu310Gln) (rat, UniProt O70511-1 38-855, Ile277Gln | Leu310Gln).
T6 sequence: T4 chain with I240Q, L273Q
The experiment can be described thus: ITC.

Experiment [7] addresses T4, AnkG 38–855 (AnkG MBD-AI-c protein; MBD …). Description: ITC; two sites.

B1: AnkB entire linker (aa 828–965) (domain or fragment)
chain: TEKHKLNVPETMTEVLDVSDEEGDDTMTGDGGEYLRPEDLKELGDDSLPSSQFLDGMNYLRYSLEGGRSDSLRSFSSDRSHTLSHASYLRDSAVMDDSVVIPSHQVSTLAKEAERNSYRLSWGTENLDNVALSSSPIH
Regarding B1, the Kd in experiment [1] stood at 2200 nM; in experiment [2], 4100 nM; in experiment [3], 4700 nM.

B2: AnkG linker ΔAI-c (aa 861–920) (domain or fragment)
chain: KASAPEKLSDGEYISDGEEGEDAITGDTDKYLGPQDLKELGDDSLPAEGYVGFSLGARSA
In the case of B2, the results for the Kd in experiment [4], in experiment [5] and in experiment [6] were 1600 nM, 2600 nM and 3900 nM, respectively.

B3: AnkG long linker (aa 837–920; AI-c + AI-b) (domain or fragment)
chain: TEKHKMNVPETMNEVLDMSDDEVGKASAPEKLSDGEYISDGEEGEDAITGDTDKYLGPQDLKELGDDSLPAEGYVGFSLGARSA
Consider B3, for which the Kd in experiment [7] was around 3000 nM.

For the origin of these results see publication PMC5779224 (2017).
